Blank lines part the entries; values can stand above or below the binder they belong to.
Assays:
recombinant mouse TfR = recombinant mouse TfR (mouse, UniProt Q62351 1-763); experiment: ELISA
Fc(aMD4)B2 = Fc(aMD4)B2 (human, UniProt P01857 104-330 = IgG part); experiment: SPR
Fc(aMD4ds)T1 = Fc(aMD4ds)T1 (human, UniProt P01857 104-330 = IgG part); experiment: SPR
Fc(aMD4)M2 = Fc(aMD4)M2 (human, UniProt P01857 104-330 = IgG part); experiment: SPR
Fc(aMD4)T3 = experiment: SPR
Fc(aMD4ds)B3 = Fc(aMD4ds)B3 (human, UniProt P01857 104-330 = IgG part); experiment: SPR
Fc(aMD4)B1 = Fc(aMD4)B1 (human, UniProt P01857 104-330 = IgG part); experiment: SPR
Fc(aMD4)T1 = Fc(aMD4)T1 (human, UniProt P01857 104-330 = IgG part); experiment: SPR
Fc(aMD4)B3 = Fc(aMD4)B3 (human, UniProt P01857 104-330 = IgG part); experiment: SPR
Fc(aMD4)T2 = Fc(aMD4)T2 (human, UniProt P01857 104-330 = IgG part); experiment: SPR

recombinant mouse TfR, sequence (Q62351 89-763): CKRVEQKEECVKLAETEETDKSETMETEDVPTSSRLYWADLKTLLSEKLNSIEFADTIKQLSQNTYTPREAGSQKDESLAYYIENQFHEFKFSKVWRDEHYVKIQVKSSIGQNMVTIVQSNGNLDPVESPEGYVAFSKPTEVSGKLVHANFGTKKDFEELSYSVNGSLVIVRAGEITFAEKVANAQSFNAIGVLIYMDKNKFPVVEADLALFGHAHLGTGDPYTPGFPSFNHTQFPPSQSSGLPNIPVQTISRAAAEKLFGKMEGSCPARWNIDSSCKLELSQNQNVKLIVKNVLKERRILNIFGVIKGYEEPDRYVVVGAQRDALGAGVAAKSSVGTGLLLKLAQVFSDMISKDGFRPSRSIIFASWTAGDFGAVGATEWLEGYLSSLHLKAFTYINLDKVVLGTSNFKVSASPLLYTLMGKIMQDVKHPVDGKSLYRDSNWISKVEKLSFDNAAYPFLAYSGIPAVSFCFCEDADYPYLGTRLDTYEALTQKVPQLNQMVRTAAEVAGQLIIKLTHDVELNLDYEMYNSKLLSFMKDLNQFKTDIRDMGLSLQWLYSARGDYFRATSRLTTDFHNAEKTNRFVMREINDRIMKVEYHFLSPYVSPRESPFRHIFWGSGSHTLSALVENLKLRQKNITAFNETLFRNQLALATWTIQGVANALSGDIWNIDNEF

- Kd (recombinant mouse TfR): 30.8 nM
B1: sTfR(aMD4) (antibody, V domains shown)
VH: EVQLVESGGGLVQPGNSLTLSCVASGFTFSNYGMHWIRQAPKKGLEWIAMIYYDSSKMNYADTVKGRFTISRDNSKNTLYLEMNSLRSEDTAMYYCAVPTSHYVVDVWGQGVSVTVSS
VL: DIQMTQSPASLSASLEEIVTITCQASQDIGNWLAWYQQKPGKSPQLLIYGATSLADGVPSRFSGSRSGTQFSLKISRVQVEDIGIYYCLQAYNTPWTFGGGTKLELK

- Kd (recombinant mouse TfR): 0.36 nM
B2: dTfR(aMD4) (antibody, V domains shown)
VH: B1 VH
VL: B1 VL

- Kd (Fc(aMD4)B2): 79.1 nM
- Kd (Fc(aMD4ds)T1): 73.4 nM
- Kd (Fc(aMD4)M2): 18.9 nM
- Kd (Fc(aMD4)T3): 652 nM
- Kd (Fc(aMD4ds)B3): 3.7 nM
- Kd (Fc(aMD4)B1): 10.8 nM
- Kd (Fc(aMD4)T1): 75.8 nM
- Kd (Fc(aMD4)B3): 4 nM
- Kd (Fc(aMD4)T2): 401 nM
B3: ectodomain fragment of human Met (MetECD, 1-931), biotinylated (domain or fragment)
chain: ECKEALAKSEMNVNMKYQLPNFTAETPIQNVILHEHHIFLGATNYIYVLNEEDLQKVAEYKTGPVLEHPDCFPCQDCSSKANLSGGVWKDNINMALVVDTYYDDQLISCGSVNRGTCQRHVFPHNHTADIQSEVHCIFSPQIEEPSQCPDCVVSALGAKVLSSVKDRFINFFVGNTINSSYFPDHPLHSISVRRLKETKDGFMFLTDQSYIDVLPEFRDSYPIKYVHAFESNNFIYFLTVQRETLDAQTFHTRIIRFCSINSGLHSYMEMPLECILTEKRKKRSTKKEVFNILQAAYVSKPGAQLARQIGASLNDDILFGVFAQSKPDSAEPMDRSAMCAFPIKYVNDFFNKIVNKNNVRCLQHFYGPNHEHCFNRTLLRNSSGCEARRDEYRTEFTTALQRVDLFMGQFSEVLLTSISTFIKGDLTIANLGTSEGRFMQVVVSRSGPSTPHVNFLLDSHPVSPEVIVEHTLNQNGYTLVITGKKITKIPLNGLGCRHFQSCSQCLSAPPFVQCGWCHDKCVRSEECLSGTWTQQICLPAIYKVFPNSAPLEGGTRLTICGWDFGFRRNNKFDLKKTRVLLGNESCTLTLSESTMNTLKCTVGPAMNKHFNMSIIISNGHGTTQYSTFSYVDPVITSISPKYGPMAGGTLLTLTGNYLNSGNSRHISIGGKTCTLKSVSNSILECYTPAQTISTEFAVKLKIDLANRETSIFSYREDPIVYEIHPTKSFISGGSTITGVGKNLNSVSVPRMVINVHEAGRNFTVACQHRSNSEIICCTTPSLQQLNLQLPLKTKAFFMLDGILSKYFDLIYVHNPVFKPFEKPVMISMGNENVLEIKGNDIDPEAVKGEVLKVGNKSCENIHLHSEAVLCTVPNDLLKLNSELNIEWKQAISSTVLGKVIVQPDQNF
modifications: biotin on the biotin acceptor sequence (BirA-mediated)

Reference: PMC9991925 (2022)
